Data: US20260109758A1 (BIOSION, published 2026)
Like-named read-outs stand apart in the source and are kept apart here.

Legend:
[1] = target: human IL4Rα on HEK293T-IL4R/STAT6/STAT6-Luc LB2 cells (human, UniProt P24394 26-825); assay: cell-based or functional assay
[2] = target: T1, human IL4Rα expressed on 293F-IL4Rα cell surface (human, UniProt P24394 26-825); assay: flow cytometry on 293F-IL4Rα cells, PE anti-human IgG Fc
T1 construct: whole, on cells; also called human IL4Rα-expressing cells; cell surface IL4R
Procedure: (§1) Cells were washed twice with FACS buffer, and added with 100 μL/well R-Phycoerythrin AffiniPure Goat Anti-Human IgG, Fey fragment specific (1:1000 dilution in FACS buffer, Jackson Immunoresearch, Cat #109-115-098). Following an incubation of 40 minutes at 4° C. in dark, cells were washed three times and resuspended in FACS buffer. Fluorescence was measured using a Becton Dickinson FACS Canto II-HTS equipment. Data was analyzed using Graphpad Prism and EC₅₀ values were reported.

[3] = target: T1, human IL4Rα expressed on 293F-IL4Rα …; assay: cell-based blocking FACS on 293F-IL4Rα cells; blocked ligand biotin human IL4
Procedure: (§2) Then, 1×10⁵ cells per well were incubated in 96 well-plates in 100 μL of serially diluted bispecific antibodies, the positive controls or negative control (starting at 100 nM with a 5-fold serial dilution) in FACS buffer for 40 minutes on ice. […] The plates were washed twice with FACS buffer, and then added and incubated for 40 minutes at 4° C. in dark with 100 μL/well R-Phycoerythrin Streptavidin (1:500 dilution in FACS buffer, Jackson Immunoresearch, Cat #016-110-084). Cells were washed twice and resuspended in FACS buffer. Fluorescence was measured using a Becton Dickinson FACS Canto II-HTS equipment. Data was analyzed using Graphpad Prism and IC₅₀ values were reported.

[4] = target: T2, recombinant human IL4Rα-his (human, UniProt P24394 26-231, limits assumed, biotin-labeled in the capture ELISA); assay: capture ELISA: antibody captured on anti-human IgG Fc F(ab')2, biotin human IL4Rα-his, SA-HRP
T2 construct: In-house made; not shown: His tag at the C-terminus
Procedure: (§3) Briefly, 96-well plates were coated with 2 μg/mL AffiniPure F(ab′)₂ Fragment Goat Anti-Human IgG, Fey fragment specific (Jackson Immuno Research, Cat #109-006-008) in PBS, 100 μL/well, overnight at 4° C. Plates were washed once with wash buffer (PBS+0.05% w/v Tween-20, PBST) and then blocked with 200 μL/well blocking buffer (5% w/v non-fatty milk in PBST) for 2 hours at 37° C. […] After a final wash, plates were incubated with 100 μL/well ELISA substrate TMB (Innoreagents, Cat #TMB-S-002). The reaction was stopped in 10 minutes at 25° C. with 50 μL/well 1M H₂SO₄, and the absorbance was read on a microplate reader using dual wavelength mode with 450 nm for TMB and 630 nm as the reference wavelength. Data was analyzed using Graphpad Prism and EC₅₀ values were reported.

[5] = target: T2, recombinant human IL4Rα-his; assay: SPR Biacore T200; antibody captured on anti-human IgG CM5 chip, IL4Rα-his as analyte; 1:1 Langmuir fit
Procedure: The goat anti-human IgG (GE healthcare, Cat #BR100839, Human Antibody Capture Kit) was covalently linked to a CM5 chip (carboxy methyl dextran coated chip) via primary amines, using a standard amine coupling kit provided by Biacore (GE healthcare, Pittsburgh, PA, USA). Un-reacted moieties on the biosensor surface were blocked with ethanolamine. Then, purified bispecific antibodies of the disclosure at the concentration of 66.67 nM and the controls at 10 μg/mL, were flowed onto the chip at a flow rate of 10 μL/min. Then, serially diluted recombinant human IL4Rα-his (in house made, IL4Rα of SEQ ID NO: 33 with His tag at C-terminus) in HBS EP buffer (provided by Biacore) was flowed onto the chip at a flow rate of 30 μL/min. The association and dissociation curves were fit to a 1:1 Langmuir binding model using BIAcore evaluation software.

[6] = target: T2, recombinant human IL4Rα-his; assay: competitive ELISA: coated human IL4Rα-his, antibody titrated; blocked ligand biotin human IL4
Procedure: (§4) Briefly, 100 μL human IL4Rα-his proteins (prepared in-house, IL4Rα of SEQ ID NO: 33 with C-terminal His tag) were coated on 96-well micro plates at 2 μg/mL in PBS overnight at 4° C. The next day, plates were washed with wash buffer (PBS+0.05% w/v Tween-20, PBST), and blocked with 5% w/v non-fatty milk in PBST for 2 hours at 37° C. Plates were then washed again using wash buffer. Serially diluted bispecific antibodies or the controls (starting at 100 nM with a 5-fold serial dilution) in 2.5% w/v non-fatty milk in PBST, 100 μL per well, were added to the IL4Rα bound plates, and incubated at 37° C. for 40 minutes. […] Plates were washed again using wash buffer. Thereafter, the plates were added with 100 μL/well of streptavidin conjugated HRP (1:10000 dilution in PBST buffer, Jackson Immunoresearch, Cat #016-030-084) and incubated for 40 minutes at 37° C. Plates were washed again using wash buffer. Finally, TMB was added and the reaction was stopped using 1M H₂SO₄, and the absorbance was read at 450 nm. Data was analyzed using Graphpad Prism and IC₅₀ values were reported.

[7] = target: T2, recombinant human IL4Rα-his; assay: as above; remark: listed apart in the source
Procedure: as §4

[8] = target: T3, recombinant human TSLP-his (human, UniProt Q969D9 29-159, biotin-labeled in the ELISAs); assay: capture ELISA: antibody captured on anti-human IgG Fc F(ab')2, biotin human TSLP-his, SA-HRP
T3 construct: In-house made; not shown: His tag at the C-terminus
Procedure: Briefly, 96-well micro plates were coated with 100 μL 2 μg/mL AffiniPure F(ab′)₂ Fragment Goat Anti-Human IgG, Fey fragment specific (Jackson Immuno Research, Cat #109-006-008) in PBS and incubated overnight at 4° C. Plates were washed 4 times with wash buffer (PBS+0.05% Tween-20, PBST) and then blocked with 200 μL/well blocking buffer (5% w/v non-fatty milk in PBST) for 2 hours at 37° C. […] After the final wash, the plates were incubated with 100 μL/well TMB (Innoreagents). The reaction was stopped 15 minutes later at room temperature with 50 μL/well 1M H₂SO₄, and the absorbance of each well was read on a microplate reader using dual wavelength mode with 450 nm for TMB and 630 nm as the reference wavelength. The OD (450-630) values were plotted against antibody concentration. Data was analyzed using Graphpad Prism and EC₅₀ values were reported.

[9] = target: T3, recombinant human TSLP-his; assay: competitive ELISA: antibody pre-mixed with biotin human TSLP-his; blocked binding to coated TSLPR-Fc/IL7Ra-Fc
Procedure: Briefly, 100 μL human TSLPR-Fc proteins (SEQ ID NO: 34-SEQ ID NO: 38 fusion, prepared in-house) at 1 μg/mL in PBS, and 100 μL human IL7Ra-Fc proteins (SEQ ID NO: 35-SEQ ID NO: 38 fusion, prepared in-house) at 1 μg/mL in PBS were coated on 96-well micro plates overnight at 4° C. The next day, plates were washed with wash buffer (PBS+0.05% Tween-20, PBST), and blocked with 5% w/v non-fatty milk in PBST for 2 hours at 37° C. Plates were then washed again using wash buffer.
After incubation at 37° C. for 40 minutes, plates were washed 4 times using wash buffer. […] Plates were washed again using wash buffer. Finally, TMB was added and the reaction was stopped using 1M H₂SO₄. The absorbance was read on a microplate reader using dual wavelength mode with 450 nm for TMB and 630 nm as the reference wavelength, then the OD (450-630) values were plotted against the antibody concentration. Data was analyzed using Graphpad Prism and IC₅₀ values were reported.

[10] = target: T4, biotin-labeled human TSLP-Fc (human, biotin-labeled); assay: cell-based blocking FACS: antibody pre-mixed with biotin human TSLP-Fc; blocked binding to cell-surface TSLPR/IL7Ra on HEK293T-TSLPR/IL7R/STAT5-Luc 5C5 cells
T4 construct: also called TSLP-Fc protein; TSLP-Fc-biotin
Procedure: (§5) The cells were prepared following the instruction of lipofectamine 3000 transfection reagent (Thermo Fisher), by transfecting HEK293T cells (ATCC® CRL-11268) with pCMV-T-P plasmids inserted with TSLPR coding sequence between EcoRI and Xba1 sites and pCMV3-SP plasmids inserted with IL7Ra coding sequence between HindIII and Xba1 sites as well as pGL4.52 [luc2P/STAT5RE/Hygro](Promega).
(§6) The cells were harvested from cell culture flasks, washed twice and re-suspended in phosphate buffered saline (PBS) containing 2% v/v Fetal Bovine Serum (FACS buffer). […] Cells were washed twice with FACS buffer, and then added and incubated with 100 μL/well R-Phycoerythrin Streptavidin (1:500 dilution in FACS buffer, Jackson Immunoresearch, Cat #016-110-084) for 40 minutes at 4° C. in dark. Cells were washed twice and re-suspended in FACS buffer. Fluorescence was measured using a Becton Dickinson FACS Canto II-HTS equipment. Data was analyzed using Graphpad Prism and IC₅₀ values were reported.

[11] = target: T4, biotin-labeled human TSLP-Fc; assay: as above; remark: listed apart in the source
Procedure: as §5, §6

[12] = target: T1, human IL4Rα expressed on 293F-IL4Rα …; assay: flow cytometry on 293F-IL4Rα cells, PE anti-human IgG Fc; remark: listed apart in the source
Procedure: as §1

[13] = target: T1, human IL4Rα expressed on 293F-IL4Rα …; assay: cell-based blocking FACS on 293F-IL4Rα cells; blocked ligand biotin human IL4; remark: listed apart in the source
Procedure: as §2

[14] = target: T2, recombinant human IL4Rα-his; assay: capture ELISA: antibody captured on anti-human IgG Fc F(ab')2, biotin human IL4Rα-his, SA-HRP; remark: listed apart in the source
Procedure: as §3

Inhibition on IL4 induced STAT6 phosphorylation (IC50, nM) [1] [nM]	Inhibition on IL13 induced STAT6 phosphorylation (IC50, nM) [1] [nM]	EC50 [2] [nM]	IC50 [3] [nM]	EC50 [4] [nM]	Kd [5] [nM]	koff [5] [s⁻¹]	kon [5] [M⁻¹ s⁻¹]	IC50 [6] [nM]	IC50 [7] [nM]	EC50 [8] [nM]	IC50 [9] [nM]	IC50 [10] [nM]	IC50 [11] [nM]	EC50 [12] [nM]	IC50 [13] [nM]	EC50 [14] [nM]	Binder
0.00473	0.0262	0.128	0.102	0.015	0.196	5.58e-05	285000	0.22	0.254								Dupilumab (antibody, V domains shown) VH: EVQLVESGGGLEQPGGSLRLSCAGSGFTFRDYAMTWVRQAPGKGLEWVSSISGSGGNTYYADSVKGRFTISRDNSKNTLYLQMNSLRAEDTAVYYCAKDRLSITIRPRYYGLDVWGQGTTVTVSS VL: DIVMTQSPLSLPVTPGEPASISCRSSQSLLYSIGYNYLDWYLQKSGQSPQLLIYLGSNRASGVPDRFSGSGSGTDFTLKISRVEAEDVGFYYCMQALQTPYTFGQGTKLEIKR
										0.0512	0.0716	1.04	1				hu1C5F12E9-V8(IgG4) (antibody, also called parental anti-TSLP antibody hu1C5F12E9-V8(IgG4)) heavy: not shown light: DIQMTQSPSSLSASVGDRVTITCRPTENIYSYLAWYQQKPGKAPKLLIYFARTLAEGVPSRFSGSGSGTDFTLTISSLQPEDFATYYCQHHYGTPWTFGGGTKVEIKRTVAAPSVFIFPPSDEQLKSGTASVVCLLNNFYPREAKVQWKVDNALQSGNSQESVTEQDSKDSTYSLSSTLTLSKADYEKHKVYACEVTHQGLSSPVTKSFNRGEC
0.015	0.033							0.266	0.364					~0.161	0.107	0.0225	huC2C1A1A1-V15(IgG4) (antibody, also called anti-IL4R huC2C1A1A1-V15) heavy: not shown light: DIQMTQSPSSLSASVGDRVTITCRTSENIYSYLAWYQQKPGKAPKFLVYNAKTLAEGVPSRFSGSGSGTDFTLTISSLQPEDFATYYCQHYYGPPTWTFGQGTKVEIKRTVAAPSVFIFPPSDEQLKSGTASVVCLLNNFYPREAKVQWKVDNALQSGNSQESVTEQDSKDSTYSLSSTLTLSKADYEKHKVYACEVTHQGLSSPVTKSFNRGEC
